Source: the supplement of paper PMC12042874
± gives the uncertainty stated by the source.

Assay: amyloid nucleation score (Sup35N fusion, yeast selection) (log enrichment); library NNK1; higher = more nucleation; inactive = no reads after selection
Method in brief: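 Using DiMSum, nucleation scores were taken as the log enrichment of output over input reads, centred on the mode score of non-aggregating sequences. The input and output reads came from Illumina sequencing of plasmid inserts, with sequences under 100 input reads excluded. The yeast were psi-negative, expressed Sup35N fused to peptides of 20 random codons, were induced with 100 μM copper sulfate for 24 hours, and were grown 7 days at 30°C on medium lacking adenine and uracil.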

Substance	amyloid nucleation score
NEFVDQFSEHFGRVGEFPAW	-0.316 ± 0.4
NEPHWSLLRF	-0.535 ± 0.65
NFELLPYLSLNWSHFFCSCF	6.56 ± 0.061
NFFCDSISY	-0.908 ± 1.1
NFFFRMNIN	2.18 ± 0.39
NFFIWLMVFIGDFFDLVTSA	-0.94 ± 0.59
NFKTSKWYESGRASRSS	-0.076 ± 0.41
NFLMSKTGLTPHR	0.07 ± 0.51
NFLNGLMLTSRVRKFLASGY	-0.161 ± 0.6
NFLPRTCMLVARFRRKTYLL	0.879 ± 0.54
NFPVVW	0.286 ± 0.28
NFSESFLTVNPQTTDVLKLH	-1.18 ± 1.5
NFYSGICMICLGT	7.307 ± 0.065
NGANMLVCKRFVLVNLYGPA	6.02 ± 0.063
NGCLFILFCILLFKAQPSIA	0.057 ± 0.78
NGCTIVGVTKGSLNH	1.04 ± 0.24
NGFRSVQVLGKGAVMCVNCR	inactive
NGGMGSPLDYQRWSDGDQVG	-0.365 ± 1.1
NGSLLWYVCSSWNVMHDGSV	-1 ± 1.3
NGSRYLANYSQS	0.23 ± 0.36
NGTGLFNNLWVGSLRLRVTR	0.192 ± 0.56
NGVRYTVRLFMVLWR	-1.58 ± 2.4
NGWNYM	-0.349 ± 1
NGYRNMSRREQTCLR	-0.055 ± 0.36
NHEKGQRTVTMWLSLKDSMG	3.02 ± 0.12

Substance	amyloid nucleation score
NHIDGVIGY	0.083 ± 0.61
NIFVGLLTWLCVKLCMGMFV	-0.633 ± 0.94
NIHVSKVGGLGTNLCYARNA	1.77 ± 0.51
NIILSYLYFRTARVISEDRR	4.7 ± 0.081
NIKANQLKGTWKRRTMYRWS	-0.271 ± 0.97
NILCTLPSIGILSAI	-0.249 ± 0.37
NILPSREYHVAKVAGCATGW	-0.618 ± 1.4
NINPLFI	1.96 ± 0.26
NIVFMCMCGLDI	0.895 ± 0.29
NIVIIVVSNLN	3.44 ± 0.082
NKCKKYGYLFRLSGYEGHNL	5.54 ± 0.091
NKFYCVI	-0.927 ± 1.4
NKMIKWASQDGCRKVRFSEE	-0.427 ± 0.4
NKYLDSKDWRAFCRSYFNLF	0.891 ± 0.14
NKYLLNF	inactive
NLCVVREWYSKSCWPRFLRV	-0.274 ± 0.56
NLDVYFLVRWLLSCRCACRS	0.87 ± 0.62
NLFSGNLPRFDFAIQGAFVN	-0.447 ± 0.48
NLFTDVIHYMVAFLLVYYII	0.682 ± 0.49
NLHNRTCWCMYLFDTSWS	0 ± 0.29
NLKSSYSAIPLFFIWCGTSV	0.114 ± 0.31
NLLLYVYKKLCFGFVKECII	-0.953 ± 0.57
NLLQLYDICAGCVRYSRWDG	1.53 ± 0.16
NLLVCGVLRNCVSGTMF	0.312 ± 1.2
NLNFLFFQWSNIMVCHQNQV	4.62 ± 0.057

Substance	amyloid nucleation score
NLREDENSGCNCGVDFLGQG	-0.435 ± 0.4
NLRQHVYICYNLNGRTHFLW	6.719 ± 0.047
NLSAVRLAYLPCVSHTHCAV	0.875 ± 0.45
NLSSLSWVTIYKNFCAIMSS	-0.378 ± 0.58
NLSWRISKHMALGVRCLWCH	0.791 ± 0.72
NLTRITF	-0.762 ± 1.1
NLTVCVQCNAAYCNYLSHRD	7.517 ± 0.071
NLVAAYRY	0.146 ± 0.45
NLVFSMPAVWALVYVFTLFI	1.51 ± 0.37
NMAMYSIWGGWWMVLFCVLL	inactive
NMCFYELDGYMLGNYLARQF	-1.51 ± 1.3
NMEWYRTFCSQCYIGRRGTS	0.476 ± 0.9
NMIKYVTLKMRL	0.328 ± 0.6
NMLAQSRSSVIAPLRRVWPV	0.889 ± 0.77
NMWGVGDVTGIF	1.62 ± 0.59
NNAGYRYALRKISSHLLRPV	-0.092 ± 0.44
NNCANIGRIEFMPGHYDMCV	1.11 ± 0.36
NNKQYLI	1.59 ± 0.38
NNLILPGWM	-0.612 ± 0.55
NNLRYPCLGRCSISFGMVCG	0.593 ± 0.41
NNLSANVSLGPGCAGGQPRA	0.764 ± 0.61
NNNESEWMRGFSLKEGPTQE	0.111 ± 0.84
NNRHGYFNFCWWKEFLVKRE	inactive
NNRNQAMKVYNLVSLIEAKR	-0.218 ± 1
NNTFGLGNFTDSFCNIRSEK	0.572 ± 0.39

Substance	amyloid nucleation score
NNTFIMLIF	6.98 ± 0.083
NNTFQIVLRFSGRHIDFNRR	7.639 ± 0.064
NNVLCSGKMGRLCVGCIMPC	-0.507 ± 1.5
NNWSVQSGNFTFCSGRGLCS	7.438 ± 0.054
NPAGF	0.558 ± 1.1
NPLHGARFLIGNVFIIRNFK	5.52 ± 0.073
NPLTGAL	-0.406 ± 0.56
NPTNVSVWGTRGPGCVDYWY	-0.304 ± 0.41
NPWIT	1.65 ± 0.35
NQNAGELNKFPWDRWKYLYV	-1.1 ± 0.74
NRDQRKGIVFTWAVVEPKLP	0.413 ± 0.97
NRECYYRPGNALNHGFFQIL	0.479 ± 1.2
NRFYL	0.597 ± 0.4
NRKEFKCSRWHRGNWYVNAR	-0.378 ± 0.79
NRTYVGWEVILPKVWNSSVY	-0.663 ± 0.61
NRYGWHSPDVPLAHIS	-0.029 ± 0.87
NRYRCYDCTLVGRVSYS	-0.436 ± 0.29
NSAPDP	-0.948 ± 2.4
NSCFQSSIYVTSYTWECSP	inactive
NSCRTRLVTRGCSTVPNMWM	-0.17 ± 0.43
NSDNSGWWRLLYIVESGISS	0.019 ± 1.4
NSGEEYVRVEGNCAFKSLSC	0.416 ± 0.15
NSHRNSWSYMRHYSQSLMC	0.227 ± 0.74
NSIDFVFDDGVLIRFVIKVS	inactive
NSMSNF	-1.08 ± 2.4

Substance	amyloid nucleation score
NSNLVFFRQYIYTVLYTNSF	5.817 ± 0.048
NSRAGLYVISSSYCRSMLDR	1.48 ± 0.39
NSRGAQVCDICSIRMFNCCP	7.149 ± 0.048
NSRNDLVMLILLPSSRAGRL	0.325 ± 0.99
NSTSCCVMGVSVRFMSFF	7.498 ± 0.069
NSVFVPFGKEF	-0.493 ± 0.39
NTAFLAVLSNALMVGMYSLL	0.606 ± 0.58
NTCEGGKCSYKVVSFLYLKY	0.497 ± 0.5
NTCYALIMVLYRRDRGPANM	1.55 ± 0.17
NTGWDRGHGCSLMFHRVLEW	2.67 ± 0.13
NTHILYVWSVMCGHMN	3.35 ± 0.11
NTMLQKVKCWKRRVDSSRQE	0.093 ± 0.87
NTYWVSSAS	0.078 ± 0.64
NVCPFWGYKDAW	0.435 ± 0.22
NVFLVRAYLMENVHFYDFMC	4.54 ± 0.14
NVILFNYLREILRLCYMACM	0.758 ± 0.81
NVIWVASYF	-0.914 ± 0.44
NVIYFNVLVAPLHIPMLDLG	3.75 ± 0.14
NVKICDGAIIYMSSMASFEL	4.79 ± 0.092
NVMCAGYIIMGATMYKKWVM	0.902 ± 0.29
NVSDWSHVFMSMFLIMGGCN	0.509 ± 0.66
NVSSIFITQY	inactive
NVSVENLGYTLSIPSSMICS	0.319 ± 0.23
NVSVVSSHMLICMGMATRNP	1.92 ± 0.36
NVTIVGS	1.02 ± 0.46

Substance	amyloid nucleation score
NVWLWDTKFILQTRIPS	-0.026 ± 1.7
NVYWNRWAMTFWLSGDEMWF	1.27 ± 0.42
NWAKGNCYVAFRLKWRYNCG	0.745 ± 0.74
NYCFLNQDFCD	3.61 ± 0.2
NYCYSFIKYPLEPVKFLSAV	-0.239 ± 1.1
NYREGVVIILNNPDYCRRER	6.36 ± 0.091
NYSYNYLVVKRENTGYSGQV	0.917 ± 0.42
NYSYVTWNLFGQSPICSLWY	6.103 ± 0.049
NYVGWLLCASILVRYNGTLE	1.26 ± 0.77
NYVIGRVIISMYGNDVTRLP	4.23 ± 0.095
PALDAYSQKFELTCCLDTLH	inactive
PCFSLLDSQRFVFGAKIILR	0.093 ± 0.69
PCLVSCHPGADAYLYDNLEV	-0.856 ± 2.4
PCSVISGHLTSMSSLSLFGG	-0.299 ± 0.32
PCTRHCLRLHLAFMWLILAI	-0.31 ± 0.4
PCYAVYITAPINV	5.94 ± 0.093
PDCRSYLTIF	0.486 ± 0.31
PDGPANSSKDGDFCDKLR	1.4 ± 0.6
PDVVSTSLILGGLNSPELEH	0.016 ± 0.6
PFGGDFTF	0.187 ± 0.24
PFLAKVLCNVWNI	6.8 ± 0.047
PFNFIPFAYRLYRKTYRTSH	0.165 ± 0.46
PFQECFLRKVYWIIWRSRPK	0.255 ± 1.2
PFSVWSPPMMDPVHNIFWVR	-0.203 ± 0.49
PFVNW	0.432 ± 0.84

Substance	amyloid nucleation score
PGLLMNRVPVSSTQYIYLEQ	0.029 ± 0.75
PGSANASLTERFLMKMVGED	0.053 ± 0.78
PGYYLEYFLYVNLSWAKTWG	0.018 ± 0.27
PHDSFLMHTDSGEHWGPVYR	0.037 ± 0.36
PHIIFNVVTITYMISALRHV	3.49 ± 0.09
PHYRTSFVKHPLL	0.73 ± 0.54
PIFAVTKVQVMRPH	-1.94 ± 2.7
PIKEVPNTSRLLFSVCMKWH	0.504 ± 0.74
PIVLWTIIPNTFKS	1.25 ± 0.17
PIYGFCSIALGSMLIIPRLL	-1.05 ± 0.77
PKFSLMQLTPGLGTQ	3.13 ± 0.13
PKMAPRNINVGRS	0.26 ± 0.54
PLFVVRIDEISSDSIRGAGH	1.88 ± 0.53
PLHAANDLSCPENLDVWYHE	-0.696 ± 0.83
PLKFTSSMSG	-1.23 ± 0.51
PLRDGA	-0.856 ± 2.4
PLRDKESVLMWLYSYWVTNI	0.017 ± 0.32
PLTVVLRSV	inactive
PMIPKFMSERCQLIWWM	0.961 ± 0.7
PMLNFEIMVRHDRRRLYKVC	0.714 ± 0.42
PMVTSSCFRCTLLCSQFWQF	0.444 ± 0.26
